The results in this text go back to patent US20240101688A1 (MYTHIC THERAPEUTICS, published 2024).

A value given as a limit tells only on which side of the number the result lay.

The target of test [1] is T1, MET (cMET, Sino Biological Cat. No. 10692-H08H) (UniProt P08581 25-932).
T1 construct: Soluble analyte of the BLI assays
In words: BLI: antibody captured on anti-human Fc biosensor, MET in solution; association at pH 7.4 (0-120 s), dissociation at pH 7.4 (black trace) or pH 5.4 (grey trace). The protocol: After allowing for four days of protein expression, cell culture supernatants were collected, quantified by SDS-PAGE analysis, and the pH dependence of the variant was evaluated using biolayer interferometry (BLI) on an Octet RED 96e instrument. Briefly, cell culture supernatants were diluted based on qualitative expression level of the variant determined by visual examination of SDS-PAGE gels, 5 μL of cell culture supernatant was diluted into 195 μL of 1×PBST, pH 7.4 for high expressors, 25 μL of cell culture supernatant was diluted into 175 μL of 1×PBST, pH 7.4 for medium expressors and 100 μL of cell culture supernatant was diluted into 100 μL of 1×PBST, pH 7.4 for low expressors for loading onto the sensor tips. Diluted supernatants were then captured on an anti-human Fc sensor (Forte Bio). A baseline was established using 1×PBST (50 mM Potassium Phosphate Buffer+150 mM NaCl+0.05% Tween 20), pH 7.4, and the sensor was associated with 50 nM of MET (cMET, Sino Biological Cat. No. 10692-H08H) in 1×PBST, pH 7.4, for 120 sec to generate an association curve. In the dissociation phase, the antibody-antigen complex on the sensor was exposed to 1×PBST, pH 7.4 or pH 5.4, for 300-600 sec.
A general note: Biolayer interferometry detects binding as a change in optical thickness at a sensor tip.

In test [2] the target is T2, MET Proto-Oncogene, Receptor Tyrosine Kinase (MET), on cells (human, UniProt P08581 25-1390).
T2 construct: also called cMET; c-Met
Briefly: affinity on HUVEC against affinity on Detroit-562, flow cytometry, pH 7.4. On the procedure:
(§1) Measurement of the affinity of pH-engineered antibodies specific for MET was performed by FACS analysis on cell lines with ranges of cMET expression; Detroit-562 cells (ATCC; CCL-138), NCI-H1975 (ATCC CRL-5908) and HUVEC (C2519A, Lonza). Cell lines selected for this study were obtained from commercial sources and cultured using manufacturer recommended conditions. All cell lines were cultured upon receipt, expanded and cryopreserved at a similar passage number for use in the affinity experiments. Briefly, 1.0×10\hat{ }5 cells that express MET are plated per well in a 96-well plate in 100 μL media. The cells are washed two times with 200 μL of FACS buffer (1×PBS containing 3% Fetal Bovine Serum) at pH 7.4. The purified protein samples are diluted into FACS buffer at pH 7.4, for a titration from 100 nM to 1 pM, and added to the cells and allowed to bind for 2 hours on ice. After incubation with the primary antibodies, cells are washed twice as before, and then 100 μl of secondary goat anti-Human AF488 (IgG Cross-Adsorbed polyclonal secondary antibody), diluted 1:200, is added in FACS buffer pH 7.4, and incubated for 1 hour on ice. The plates are washed twice Binding is read on a flow cytometer (Accuri C6, BD Biosciences). Binding is observed as a shift in the FL1 signal (as a mean fluorescence intensity) versus secondary alone.
A general note: A flow cytometer gives signals particle by particle.

Test [3] has as its target T2, MET Proto-Oncogene, Receptor Tyrosine …. In words: flow cytometry titration on HUVEC cells (8k/cell), pH 7.4; printed as Affinity at pH 7.4. The protocol: as §1
For test [4] the target is unchanged. In words: flow cytometry titration on Detroit-562 cells (125K/cell), pH 7.4; printed as Affinity at pH 7.4. On the procedure: as §1
The target of test [5] is T1, MET (cMET, Sino Biological Cat. No. …). Briefly: BLI: antibody captured on anti-human Fc biosensor, MET in solution; three runs: pH 7.4 throughout (black), pH 6.4 throughout (light grey), association at pH 7.4 then release at lower pH (dark grey; key on D00015: pH 5.4; legend paragraph 84: pH 6.4); association 0-120 s.
For test [6] the target is unchanged. The test is described as above. The source holds these as a separate data set.
The target is the same in test [7]. The description is as above. This is another data set of the same source.
Test [8] shares this target. The test is described as above. The source holds these as a separate data set.

The Kd is the concentration at which binding is half-saturated.

T2 sequence (P08581 25-1390): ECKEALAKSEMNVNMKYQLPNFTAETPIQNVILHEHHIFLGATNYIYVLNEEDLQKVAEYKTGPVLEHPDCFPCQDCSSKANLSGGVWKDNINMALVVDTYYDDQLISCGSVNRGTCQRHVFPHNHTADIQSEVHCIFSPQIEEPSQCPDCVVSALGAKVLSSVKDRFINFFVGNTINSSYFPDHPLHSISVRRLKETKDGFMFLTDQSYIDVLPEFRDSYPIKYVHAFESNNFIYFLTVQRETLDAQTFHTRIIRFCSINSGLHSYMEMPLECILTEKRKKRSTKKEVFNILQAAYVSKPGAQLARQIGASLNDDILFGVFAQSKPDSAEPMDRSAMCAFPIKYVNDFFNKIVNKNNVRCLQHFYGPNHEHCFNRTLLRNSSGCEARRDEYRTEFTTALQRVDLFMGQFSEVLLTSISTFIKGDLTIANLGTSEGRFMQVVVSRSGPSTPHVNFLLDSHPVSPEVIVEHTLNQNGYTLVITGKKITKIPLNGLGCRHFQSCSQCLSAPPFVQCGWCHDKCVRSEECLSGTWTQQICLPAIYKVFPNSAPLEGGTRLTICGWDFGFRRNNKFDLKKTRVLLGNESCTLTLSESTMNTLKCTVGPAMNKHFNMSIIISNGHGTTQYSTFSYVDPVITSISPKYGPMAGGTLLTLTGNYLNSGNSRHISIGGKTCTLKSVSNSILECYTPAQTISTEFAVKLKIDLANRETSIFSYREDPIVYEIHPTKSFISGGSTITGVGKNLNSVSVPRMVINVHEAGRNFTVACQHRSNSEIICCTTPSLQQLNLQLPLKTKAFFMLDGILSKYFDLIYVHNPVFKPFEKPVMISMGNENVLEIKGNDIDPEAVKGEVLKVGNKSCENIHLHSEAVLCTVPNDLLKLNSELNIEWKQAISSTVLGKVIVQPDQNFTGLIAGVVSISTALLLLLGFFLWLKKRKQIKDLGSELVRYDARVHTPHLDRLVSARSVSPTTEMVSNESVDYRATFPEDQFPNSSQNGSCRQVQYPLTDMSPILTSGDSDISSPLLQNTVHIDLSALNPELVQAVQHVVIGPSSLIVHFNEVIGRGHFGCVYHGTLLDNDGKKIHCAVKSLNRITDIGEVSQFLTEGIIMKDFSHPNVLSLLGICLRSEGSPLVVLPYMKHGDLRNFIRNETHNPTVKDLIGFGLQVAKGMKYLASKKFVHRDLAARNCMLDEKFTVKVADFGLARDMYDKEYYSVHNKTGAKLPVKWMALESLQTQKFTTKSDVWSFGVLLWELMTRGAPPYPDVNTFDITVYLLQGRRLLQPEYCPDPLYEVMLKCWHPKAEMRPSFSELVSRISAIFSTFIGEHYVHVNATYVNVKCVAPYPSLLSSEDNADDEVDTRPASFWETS
T1 sequence (P08581 25-932 limits assumed): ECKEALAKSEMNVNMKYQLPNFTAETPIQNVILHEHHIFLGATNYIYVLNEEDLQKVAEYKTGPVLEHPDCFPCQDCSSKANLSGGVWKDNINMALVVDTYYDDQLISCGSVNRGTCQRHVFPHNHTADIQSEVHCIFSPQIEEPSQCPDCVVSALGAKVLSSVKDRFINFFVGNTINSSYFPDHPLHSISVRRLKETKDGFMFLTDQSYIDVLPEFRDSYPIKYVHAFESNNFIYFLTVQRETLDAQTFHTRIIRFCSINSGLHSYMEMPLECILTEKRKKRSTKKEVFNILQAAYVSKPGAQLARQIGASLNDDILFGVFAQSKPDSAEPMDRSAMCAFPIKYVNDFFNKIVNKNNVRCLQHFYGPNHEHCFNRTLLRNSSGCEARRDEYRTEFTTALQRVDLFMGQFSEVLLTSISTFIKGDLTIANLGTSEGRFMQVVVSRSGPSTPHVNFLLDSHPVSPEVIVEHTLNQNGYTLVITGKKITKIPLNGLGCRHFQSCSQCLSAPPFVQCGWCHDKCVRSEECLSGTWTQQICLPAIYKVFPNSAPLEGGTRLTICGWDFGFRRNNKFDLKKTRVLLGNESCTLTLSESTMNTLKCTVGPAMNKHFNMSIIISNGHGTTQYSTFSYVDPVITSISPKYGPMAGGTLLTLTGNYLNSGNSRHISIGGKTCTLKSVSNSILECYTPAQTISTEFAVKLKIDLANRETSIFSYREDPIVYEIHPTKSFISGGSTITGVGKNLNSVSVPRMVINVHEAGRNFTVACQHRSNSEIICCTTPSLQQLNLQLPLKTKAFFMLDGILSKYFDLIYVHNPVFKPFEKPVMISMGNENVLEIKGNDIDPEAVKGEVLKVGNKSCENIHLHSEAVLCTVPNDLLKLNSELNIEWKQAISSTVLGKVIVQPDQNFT

B1: MYT4826 (antibody, V domains shown)
VH: QVQLVQSGAEVKKPGASVKVSCKASGYTFTHYYMHWVRQAPGQGLEWMGRVNPNRRHTTYNQKFEGRVTMTTDTSTSTAYMELRSLRSDDTAVYYCARANWLDYWGQGTTVTVSS
VL: DIQMTQSPSSLSASVGDRVTITCSVSSSVSSIYLHWYQQKPGKAPKLLIYSTSNLASGVPSRFSGSGSGTDFTLTISSLQPEDFATYYCQVYSGYPLTFGGGTKVEIKR
notes: Emibetuzumab variant
B1: in test [1], the binding result is reported as “binds”.

B2: MYT5309 (antibody, V domains shown)
VH: QVQLVQSGAEVKKPGASVKVSCKASGYTFTHYYMHWVRQAPGQGLEWMGRVNPNRRGTTYNQKFEGRVTMTTDTSTSTAYMELRSLRSDDTAVYYCARANWLDYWGQGTTVTVSS
VL: DIQMTQSPSSLSASVGDRVTITCSVSSSVSSIYLHWYQQKPGKAPKLLIYSTSNLASGVPSRFSGSGSGTDFTLTISSLQPEDFATYYCQHYSGYPLTFGGGTKVEIKR
notes: Emibetuzumab variant
On to B2, for which the “Fold Avidity” value in test [2] is over 50 fold. Besides, the Kd is over 200 nM in test [3] and 1.34 nM in test [4].

B3: MYT4849 (antibody, V domains shown)
VH: QVQLVQSGAEVKKPGASVKVSCKASGYTFTDYYMHWVRQAPGQGLEWMGRVNPNRRGTTYNQKFEGRVTMTTDTSTSTAYMELRSLRSDDTAVYYCARANWLDYWGQGTTVTVSS
VL: DIQMTQSPSSLSASVGDRVTITCSVSSSVSSIHLHWYQQKPGKAPKLLIYHTSNLASGVPSRFSGSGSGTDFTLTISSLQPEDFATYYCQVYSGYPLTFGGGTKVEIKR
notes: Emibetuzumab variant
For B3, the binding result in test [5] was “binds”.

B4: MYT4837 (antibody, V domains shown)
VH: QVQLVQSGAEVKKPGASVKVSCKASGYTFTHYYMHWVRQAPGQGLEWMGRVNPHRRHTTYNQKFEGRVTMTTDTSTSTAYMELRSLRSDDTAVYYCARANWLDYWGQGTTVTVSS
VL: DIQMTQSPSSLSASVGDRVTITCSVSSSVSSIYLHWYQQKPGKAPKLLIYSTSNLASGVPSRFSGSGSGTDFTLTISSLQPEDFATYYCQVYSGYPLTFGGGTKVEIKR
notes: Emibetuzumab variant
As for B4, the “Fold Avidity” value in test [2] was over 100 fold. Besides, the Kd was over 100 nM in test [3] and 1.02 nM in test [4].

B5: MYT4827 (antibody, V domains shown)
VH: QVQLVQSGAEVKKPGASVKVSCKASGYTFTHYYMHWVRQAPGQGLEWMGRVNPNRRGTTYNQKFEGRVTMTTDTSTSTAYMELRSLRSDDTAVYYCARAHWLDYWGQGTTVTVSS
VL: DIQMTQSPSSLSASVGDRVTITCSVSSSVSSIYLHWYQQKPGKAPKLLIYSTSNLASGVPSRFSGSGSGTDFTLTISSLQPEDFATYYCQVYSGYPLTFGGGTKVEIKR
notes: Emibetuzumab variant
For B5, the binding result in test [6] is “binds”.

B6: MYT4888 (antibody, V domains shown)
VH: QVQLVQSGAEVKKPGASVKVSCKASGYTFTSYWMHWVKQAPGQGLDWIGYIKPSTDNTEYNQKFKDKATLTADKSTSTAYMELSSLRSEDTAVYYCARSYGNYPLHDYWGQGTTVTVSS
VL: QIVLTQSPAILSLSPGERATLSCSASSSVTSNYLYWYQQKPGSSPKLLIYSTSNLASGVPARFSGSGSGTSYTLTISSLEAEDAASYFCHQWSSYPPTFGSGTKLEIKR
notes: P3D12 variant; also called MYTH4888
In the case of B6, the binding result in test [7] is on record as “binds”.

B7: MYT4305 (P3D12) (antibody, V domains shown)
VH: QVQLVQSGAEVKKPGASVKVSCKASGYTFTSYWMHWVKQAPGQGLDWIGYIKPSTDNTEYNQKFKDKATLTADKSTSTAYMELSSLRSEDTAVYYCARSYGNYPLMDYWGQGTTVTVSS
VL: QIVLTQSPAILSLSPGERATLSCSASSSVTSNYLYWYQQKPGSSPKLLIYSTSNLASGVPARFSGSGSGTSYTLTISSLEAEDAASYFCHQWSSYPPTFGSGTKLEIK
notes: Human IgG1; also called P3D12 anti-cMET
Regarding B7, the “Fold Avidity” value in test [2] came out at 0.7 fold. For the same molecule, the Kd in test [3] stood at 0.2 nM; in test [4], 0.292 nM.

B8: MYT5344 (antibody, V domains shown)
VH: QVQLVQSGAEVKKPGASVKVSCKASGYTFTSYWMHWVKQAPGQGLDWIGYIKHSTDNTEYNQKFKDKATLTADKSTSTAYMELSSLRSEDTAVYYCARSYGNYPLMDYWGQGTTVTVSS
VL: QIVLTQSPAILSLSPGERATLSCSASSSVTSHYLYWYQQKPGSSPKLLIYSTSNLASGVPARFSGSGSGTSYTLTISSLEAEDAASYFCHQWSSYPPTFGSGTKLEIKR
notes: P3D12 variant
As to B8, in test [1], the binding result is reported as “binds”.

B9: MYT5351 (antibody, V domains shown)
VH: QVQLVQSGAEVKKPGASVKVSCKASGYTFTSYWMHWVKQAPGQGLDWIGHIKPSTDNTEYNQKFKDKATLTADKSTSTAYMELSSLRSEDTAVYYCARSYGNYPLMDYWGQGTTVTVSS
VL: QIVLTQSPAILSLSPGERATLSCSASSSVTSNYLYWYQQKPGSSPKLLIYSHSNLASGVPARFSGSGSGTSYTLTISSLEAEDAASYFCHQWSSYPPTFGSGTKLEIKR
notes: P3D12 variant
In the case of B9, the “Fold Avidity” value in test [2] is over 200 fold. For the same molecule, the Kd in test [3] is over 100 nM; in test [4], 0.486 nM.

B10: MYT5367 (antibody, V domains shown)
VH: QVQLVQSGAEVKKPGASVKVSCKASGYTFTSYWMHWVKQAPGQGLDWIGHIKPSTDNTEYNQKFKDKATLTADKSTSTAYMELSSLRSEDTAVYYCARSYGNYPLMDYWGQGTTVTVSS
VL: QIVLTQSPAILSLSPGERATLSCSASSSVTSNYLYWYQQKPGSSPKLLIYSTSNLASGVPARFSGSGSGTSYTLTISSLEAEDAASYFCHQWSHYHPTFGSGTKLEIKR
notes: P3D12 variant
Consider B10, for which the binding result in test [1] is “binds”.

B11: MYT4942 (antibody, V domains shown)
VH: QVQLVQSGAEVKKPGASVKVSCKASGHIFTAYTMHWVRQAPGQGLEWMGWIKPNNGLANYAQKFQGRVTMTRDTSISTAYMELSRLRSDDTAVYYCARSEITHEFDHWGQGTLVTVSS
VL: DIVMTQSPDSLAVSLGERATINCKSSESVDSYANSHLHWYQQKPGQPPKLLIYRASTRESGVPDRFSGSGSGTDFTLTISSLQAEDVAVYYCQQSKEDPLTFGGGTKVEIKR
notes: Telisotuzumab variant
Regarding B11, the binding result in test [8] is given as “binds”.
